This test deals with T1, Glut1 (accession number: NP_006507) WT, HA-tagged (UniProt P11166 1-492).
T1 construct: Expressed in THP-1 cells from a plasmid; Detected in the pull-down by anti-HA Western blot; also called WT Glut1; Glut-HA; not shown: HA tag
T1 sequence (looked up): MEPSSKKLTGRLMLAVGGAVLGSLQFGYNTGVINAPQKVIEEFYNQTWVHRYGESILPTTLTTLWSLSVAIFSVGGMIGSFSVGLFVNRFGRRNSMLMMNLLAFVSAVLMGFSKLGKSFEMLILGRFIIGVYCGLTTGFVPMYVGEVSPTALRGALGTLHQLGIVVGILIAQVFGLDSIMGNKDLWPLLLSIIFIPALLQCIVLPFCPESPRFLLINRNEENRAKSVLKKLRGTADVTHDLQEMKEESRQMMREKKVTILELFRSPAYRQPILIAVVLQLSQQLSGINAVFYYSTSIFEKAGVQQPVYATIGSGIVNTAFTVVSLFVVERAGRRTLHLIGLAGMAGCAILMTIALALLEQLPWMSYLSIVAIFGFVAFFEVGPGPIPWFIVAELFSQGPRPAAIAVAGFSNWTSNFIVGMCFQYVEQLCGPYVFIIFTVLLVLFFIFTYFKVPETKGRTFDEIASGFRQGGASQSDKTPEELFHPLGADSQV
In words: Strep pull-down from THP-1 cell extract, anti-HA Western blot. The procedure:
THP-1 cell line was transfected with expression plasmids for TM4SF5-Strep (control vector, WT, N-Glycosylation-deficient mutant; N138A/N155Q), Palmitoylation-deficient mutant (C2/6/9/75/76/80/81/85/189A), Glut1 (accession number: NP_006507) WT, Glut1 K38A, and Glut1 E329Q, and after 48 hours, cell extracts were obtained. The binding of TM4SF5 and Glut1 was confirmed by Western blotting of Glut-HA using an anti-HA antibody by pulling-down with strepavidin agarose resin (Thermo Fisher Scientific).
In general terms: In western blotting, separated proteins are transferred to a membrane and probed.

B1: TM4SF5-Strep N-Glycosylation-deficient mutant N138A/N155Q (other, human, UniProt O14894 1-197, looked up)
chain: MCTGKCARCVGLSLITLCLVCIVANALLLVPNGETSWTNTNHLSLQVWLMGGFIGGGLMVLCPGIAAVRAGGKGCCGAGCCGNRCRMLRSVFSSAFGVLGAIYCLSVSGAGLRNGPRCLMNGEWGYHFEDTAGAYLLARTLWDRCEAPPRVVPWQVTLFSLLVAASCLEIVLCGIQLVNATIGVFCGDCRKKQDTPH
notes: Expressed in THP-1 cells and pulled down from the cell extract with streptavidin agarose; not shown: Strep tag
In the case of B1, the binding result is on record as “no binding”.

Values taken from patent publication US20220160663A1 (SEOUL NATIONAL UNIVERSITY R AND DB FOUNDATION, published 2022).
